Test results as given in patent US20220017616A1 (Amgen, published 2022).
Where a chain is given by its changes, count along the chain named.

T1: human TIGIT (human, UniProt Q495A1 22-244)
T1 sequence: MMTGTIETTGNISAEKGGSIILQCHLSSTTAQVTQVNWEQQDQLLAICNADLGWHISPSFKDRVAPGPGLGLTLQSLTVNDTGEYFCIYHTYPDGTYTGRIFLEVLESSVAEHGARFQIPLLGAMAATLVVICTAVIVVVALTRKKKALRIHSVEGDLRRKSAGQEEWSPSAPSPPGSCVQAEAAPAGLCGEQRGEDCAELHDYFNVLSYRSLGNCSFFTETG

T2: huTIGIT (PL44403) (human, UniProt Q495A1 22-141)
T2 construct: Soluble protein; also called Human TIGIT (Octet analyte, mono-Fc tag)
T2 sequence: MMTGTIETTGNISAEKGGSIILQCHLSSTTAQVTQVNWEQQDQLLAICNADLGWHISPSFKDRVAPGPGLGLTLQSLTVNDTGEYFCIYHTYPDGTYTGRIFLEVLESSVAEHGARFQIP

T3: human CD112R (human, UniProt Q6DKI7 41-326)
T3 construct: also called huCD112R; PVRIG
T3 sequence: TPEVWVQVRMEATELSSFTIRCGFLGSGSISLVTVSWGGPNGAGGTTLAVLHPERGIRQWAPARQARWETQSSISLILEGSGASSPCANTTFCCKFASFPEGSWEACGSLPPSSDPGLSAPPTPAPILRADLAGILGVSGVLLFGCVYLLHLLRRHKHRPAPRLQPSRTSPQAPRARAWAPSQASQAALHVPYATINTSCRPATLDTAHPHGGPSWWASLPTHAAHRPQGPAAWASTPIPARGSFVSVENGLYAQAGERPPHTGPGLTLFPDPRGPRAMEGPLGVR

T4: biotinylated human CD112R-Fc (human, UniProt Q6DKI7 41-171, limits assumed, biotinylated)
T4 construct: also called CD112R receptor (on streptavidin beads)
T4 sequence: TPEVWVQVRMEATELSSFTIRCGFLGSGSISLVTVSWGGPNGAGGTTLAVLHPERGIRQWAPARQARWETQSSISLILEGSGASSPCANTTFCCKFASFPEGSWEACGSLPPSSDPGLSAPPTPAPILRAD

T5: cynomolgus monkey CD112R (cynomolgus monkey)
T5 construct: also called cyno CD112R
T5 chain: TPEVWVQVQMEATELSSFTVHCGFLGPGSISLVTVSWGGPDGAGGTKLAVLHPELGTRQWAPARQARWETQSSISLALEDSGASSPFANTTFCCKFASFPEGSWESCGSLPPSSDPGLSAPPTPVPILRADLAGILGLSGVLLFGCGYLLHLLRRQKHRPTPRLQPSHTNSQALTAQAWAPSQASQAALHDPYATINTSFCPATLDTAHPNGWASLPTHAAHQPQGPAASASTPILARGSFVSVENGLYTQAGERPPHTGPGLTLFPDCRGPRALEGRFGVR

B1: 4G10 (antibody, V domains shown)
VH: QVQLQESGPGLVNPSQTLSLTCIVSGGSIRSGDYYWSWIRQHPGKGLEWIGYIYYSGGTYYNPSLKSRVIISVDTTKNQFSLKLSSMTAADTAVYYCARGSIAARSGYFYFSGLDVWGQGPTVTVSS
VL: EIVLTQTPLSLSVTPGQPASISCKSSQSLLPSDGKTYLSWYLQKPGLPPQVLIYEVSNRFSGVPDRFSGSGSGTDFTLKISRVEAEDVGVYYCMQSIQLPLTFGGGTKVEIKR
notes: Fully human XenoMouse antibody, tested as hybridoma supernatant or purified mAb
B2: 39D2 (antibody, V domains shown)
VH: QVQLVQSGAEVKKPGASVKVSCKASGYTFTGYYIHWVRQAPGQGLEWMGWISPTSGATGYAQNFQGRVTMTRDTSITTAYMELSRLRSDDTAVYYCARDSNSVLYYYGMDVWGQGTTVTVSS
VL: DIEMTQAPSSLSASVGDRVTITCRASQTIRRYLNWYQQKPGKAPKLLIYAASSLQNGVPSRFSGSVSGTDFTLTISSLQPEDFATYYCQQSYSTPLTFGGGTKVGIRR
notes: as for B1
B3: 58A7 (antibody, V domains shown)
VH: QVQLQESGPGLVKPSQTLSLTCTVSGGSISSGGYYWNWIRQHPGKGLEWIGYIYYSGSTFYNPSLKSRVIISVDTSKNQFSLKLSSVTAADTAVYYCARAPRYNWNYGWFDPWGQGTLVTVSS
VL: EIVLTQSPGTLSLSPGERATLSCRASQNVSSTYLAWYQQKPGQAPRLLFYGASSRATGIPDRFSRSGSGTDFTLTISRLEPEDFAVYYCQQYDVSPWTFGQGTKVEIK
notes: Tested as hybridoma supernatant or purified mAb; also called 48B7
B4: 55G7 (antibody, V domains shown)
VH: QVQLVESGGGVVQPGRSLRLSCAASGFTFSSYGMHWVRQAPGKGLEWVALIWFDESNIYYADSVKGRFTISRDNSKNTLYLQMNSLRAEDTAVYFCARGYDLLTGYYNFDFWGLGTLVTVSA
VL: QAGLTQPPSVSKGLRQTATLTCTGNTNNVGNRGAAWLQQHQGHPPKLLSYRNNNRPSGISERLSASRSGNTASLTITGLQPEDEADYYCSAWDSSLSAWVFGGGTKLTVLG
notes: as for B1
B5: 66H9 (antibody, V domains shown)
VH: QVQLQESGPGLVKPSQTLSLTCTVSGGSISSVYFYWNWIRQHPGKGLEWIGYIYYSGGTYYNPSLRSRVTISVDTSKNQFSLKLNSVTAADTAVYYCARGSIAAGGGYFYYNDMDVWGQGTTVTVSS
VL: EIVLTQSPDFQSVTPKEKVAITCRASQSIGSSLHWYQQKPDQSPKPLIKYVSQSFSGVPSRFSGSGSGTDFTLTINSLEAEDAATYYCHQSSSLPLTFGGGTKVEIKR
notes: as for B1
B6: 1E1 (antibody, V domains shown)
VH: QVQLVQSGAEVKKPGASVKVSCQASGYTFTDYYIYWVRQAPGQGLEWMGWINPNSGGTNYAQKFQGRVTMTRDTSISTAYIELSRLRSDDTAVYYCAREDNFNGMDVWGQGTTVTVSS
VL: DIQMTQSPSSLSASVGDRVTITCRASQGIRNDLGWYQQKPGKAPKRLIYAASSLQSGVPSRFSGSGSGTEFTLTISSLQPEDFATYYCLQLNSYPLTFGGGTKVEIKR
notes: Fully human XenoMouse antibody, tested as hybridoma supernatant or purified mAb; also called 18C10
B7: 11E4 (antibody, V domains shown)
VH: QVQLQESGPGLVKPSQTLSLTCTVSGGSISSGGYYWSWIRQHPGKGLEWIGYIYYSGSTSYNPSLKSRVTISVDTSKNQFSLKLSSVTAADTAVYYCARDLDYDILTGYPRWDYGMDVWGQGTTVTVSS
VL: EIVMTQSPATLSVSPGERATLSCRASQSVSNNLAWYQQKPGQAPRLLIYSESTRATGIPDRFSGSGSGTEFTLTISSLQSEDFAVYYCQQHNNWPRTFGQGTKVEIKR
notes: Fully human XenoMouse antibody, tested as hybridoma supernatant
B8: 27G12 (antibody, V domains shown)
VH: QVQLVQSGGEVKKPGASVKVSCKASGFTFTSYDINWVRQATGQGLEWMGWMNHYSGDSDYAQKLQGRVIITRNTSITTAYMELSSLRSEDTAVYYCGRERFPFGMDVWGQGTTVTVSS
VL: DIQMTHSPSSLSASIGDRVTITCRASQGIRNELGWYQKKPGKAPKRLIYSASSLQSGVPSRFSGSGSGTEFTLTISSLQPEDFATYYCLQHNTYPLTFGGGTKVEIK
notes: as for B7
B9: 29E10 (antibody, V domains shown)
VH: EVQLVESGGGLVQPGGSLRLSCAASGFTFRNYDMHWVRQVPGKGLEWVSDIGNSGETYYLGSVKGRFTISRENAKNSLYLQMNSLRAGDTAVYYCVREEFGYGMDVWGQGTTVTVSS
VL: B6 VL with L91H
notes: as for B7
B10: 31B3 (antibody, V domains shown)
VH: QVQLVESGGGVVQPGRSLRLSCAASGFTFSYYGMHWVRQAPGKGLEWVALISYDGNNKYYVDSVRGRFTISRDNSKNTLSLQMNSLRAEDTAVYYCAREIFGESYYYGMDVWGQGTTVTVSS
VL: EIVMTQSPATLSVSPGERATLSCRASQSISRNLAWYQQKPGQAPRLLIYGASIRATVIPARFSGSGSGTEFTLTISSLQSEDFAIYYCQQYNNWMCSFGQGTKLEIK
notes: as for B7
B11: 24F1 (antibody, V domains shown)
VH: EVQLVESGGGLVQPGGSLRLSCAASGFTFSRDDMHWVRQATGKGLEWVAGIDNAGDTYYPGSVKGRFTISRENAKNSLYLQMNSLRAGDTAIYYCAREGQWPYGMDVWGQGTTVTVSS
VL: B6 VL with A50S, P59S, L91S
notes: as for B7

What was measured:
[1] = target: T1, human TIGIT; test: cell-based or functional assay
[2] = target: T1, human TIGIT; test: flow cytometry on CHO-S cells expressing human TIGIT, competitor CD112-Fc-Alexa 647, at 1 ug/mL
Method: (§1) TIGIT-binding hybridoma supernatants were then tested for their ability to block TIGIT from binding ligand. […] The 7-AAD cell viability stain was then added and the cells incubated for a further 15 minutes at 4° C., washed twice and resuspended in FACS buffer. Samples were analyzed using a BD Accuri™ Flow Cytometer and an Intellicyt HyperCyt autoSampler.

[3] = target: T2, huTIGIT (PL44403); test: Octet, antibody on anti-huIgG Fc capture tips, huTIGIT as analyte
Method: (§2) In the case of cynoTIGIT, association was monitored for 5 min and dissociation for 5 min. […] The limit of detection of dissociation is 4e-5 based on a minimum of 5% dissociation over 20 minutes.

[4] = target: T1, human TIGIT; test: flow cytometry on CHO-S cells expressing human TIGIT, competitor huCD155-Fc-Alexa 647, at 1.7 µg/mL
Method: as §1

[5] = target: T1, human TIGIT; test: flow cytometry, 1 µg/mL on activated primary human T cells, fold over isotype control
Method: (§3) The binding of hybridoma supernatants to TIGIT expressed by primary human and cynomolgus monkey cells were tested by flow cytometry. For human primary cell binding assay, purified human T cells (Biological Specialty Corp.) were thawed and suspended at a concentration of 2.5×10⁶ cells/mL. […] After 72 hours, cells were removed, washed and suspended at a concentration of 0.5×10⁶ cells/mL with 10 ng/mL of IL-2 (Pepro Tech). Cells were then incubated for another 48 to 72 hours at 37° C./5% CO₂. For cynomolgus primary cell binding assay, cynomolgus PBMCs (SNBL) were thawed and suspended in a concentration between 4×10⁶ and 5×10⁶ cells/mL. […] After 72 hours, cells were removed, washed and suspended at a concentration of 0.5×10E6 cells/mL with 20 ng/mL of IL-2 (Pepro Tech). Cells were then incubated for another 48 to 72 hours at 37° C./5% CO₂. After the final incubation, cells were prepared for flow cytometry by incubation with normalized hybridoma supernatants, positive control antibodies and isotype control antibodies at 1 μg/mL final concentration. […] Cells were then run on BD FACSCanto II flow cytometer to detect anti-TIGIT antibody binding.

[6] = target: T1, human TIGIT; test: cell-based or functional assay; remark: listed apart in the source
[7] = target: T6, cynomolgus TIGIT (cynomolgus monkey); test: flow cytometry, 1 µg/mL on activated primary cyno PBMCs, fold over isotype control
T6 construct: Cell-surface form; also called cyno TIGIT
Method: as §3

[8] = target: T7, cynoTIGIT (PL40461) (cynomolgus monkey); test: Octet, antibody on anti-huIgG Fc capture tips, cynoTIGIT as analyte
T7 construct: Soluble protein; also called Cyno TIGIT (Octet analyte)
Method: as §2

[9] = target: T3, human CD112R; test: flow cytometry, titration on activated primary human T cells
Method: (§4) Briefly, cultured human T cells and cyno PBMCs were incubated with lead panel starting at 3 μg/mL for human or 5 μg/mL for cyno and titrated 1 in 3 for the lowest concentration of 0.001 μg/mL for human and 0.002 μg/mL for cyno. […] For analysis, FCS Express was used to obtain Geo Means and Screener was used to determine fold over Isotype control, titration curves and EC50 values.

[10] = target: T4, biotinylated human CD112R-Fc; test: flow cytometry on beads, supernatant at 5 µg/mL, competitor Alexa 647 CD112-huFc at 370 ng/mL
Method: Biotinylated human CD112R-Fc was captured on Streptavidin polystyrene beads (Spherotech, Cat. No. SVP-60-5) in FACS buffer and incubated for 30 minutes at room temperature. Beads were washed twice with FACS buffer, centrifuged to pellet the beads, supernatant removed and resuspended in FACS buffer to remove unbound protein. Biotinylated human CD112R coated beads were added to a 96-well plate. Hybridoma supernatant samples were added such that 5 μg/mL final, beads were resuspended and incubated for 1 hour at room temperature. […] Beads were washed once with FACS buffer, centrifuged to pellet the beads, supernatant removed and resuspended in FACS buffer to remove unbound ligand. Samples were then resuspended in FACS buffer and read on BD Accuri™ Flow Cytometer with an Intellicyt HyperCyt autosampler.

[11] = target: T5, cynomolgus monkey CD112R; test: flow cytometry, titration on activated cyno PBMCs
Method: as §4

T7 sequence (chain, as listed by the source limits assumed): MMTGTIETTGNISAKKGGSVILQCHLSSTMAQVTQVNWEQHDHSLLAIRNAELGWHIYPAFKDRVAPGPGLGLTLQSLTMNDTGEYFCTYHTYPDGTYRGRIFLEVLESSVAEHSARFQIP
T6 sequence (chain, as listed by the source): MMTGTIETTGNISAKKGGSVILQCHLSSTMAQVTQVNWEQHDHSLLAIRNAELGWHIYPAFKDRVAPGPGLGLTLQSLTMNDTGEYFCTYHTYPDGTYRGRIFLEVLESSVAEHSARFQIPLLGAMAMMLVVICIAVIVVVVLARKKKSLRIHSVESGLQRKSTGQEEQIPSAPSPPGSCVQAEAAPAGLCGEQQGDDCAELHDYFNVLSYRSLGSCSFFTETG

Row | Binder | Potency [nM], Jurkat human TIGIT/IL-2-luciferase RGA, n = 1 [1] | Potency [nM], Jurkat human TIGIT/IL-2-luciferase RGA, n = 2 [1] | % inhibition [2] | Kd [3] | % inhibition [4] | FACS Geomean Fold [5] | activity in the primary CD8 memory T-cell assay (IFN-γ release, CHO-K1-CD155+ cells) [6] | FACS Geomean Fold [7] | Kd [8] | EC50 [9] | % of CD112 ligand prevented from binding [10] | EC50 [11]
1 | B1 | 6.7 nM | 15 nM | 91% | < 0.2 nM | 100% | 13.5 fold | – | – | – | – | – | –
2 | B2 | 2 nM | 2.8 nM | 100% | < 0.1 nM | 100% | 13.7 fold | 380 pM | – | – | – | – | –
3 | B3 | 7.9 nM | 2.9 nM | 88% | < 0.1 nM | 99% | 4.5 fold | – | 7.2 fold | 38 nM | – | – | –
4 | B4 | 4.4 nM | 14.4 nM | 86% | < 0.1 nM | 99% | 4.5 fold | – | 12.3 fold | 17 nM | – | – | –
5 | B5 | 3.4 nM | 5.8 nM | 85% | < 0.1 nM | 98% | 4.1 fold | – | 4 fold | 18 nM | – | – | –
6 | B6 | – | – | – | – | – | – | – | – | – | 0.02 µg/mL | ≥ 90% | 0.0087 µg/mL
7 | B7 | – | – | – | – | – | – | – | – | – | – | ≥ 90% | –
8 | B8 | – | – | – | – | – | – | – | – | – | 0.089 µg/mL | ≥ 90% | 0.174 µg/mL
9 | B9 | – | – | – | – | – | – | – | – | – | 0.033 µg/mL | ≥ 90% | 0.0322 µg/mL
10 | B10 | – | – | – | – | – | – | – | – | – | 0.127 µg/mL | ≥ 90% | 0.898 µg/mL
11 | B11 | – | – | – | – | – | – | – | – | – | 0.034 µg/mL | ≥ 90% | 0.0334 µg/mL
